Results published in patent publication US20120282637A1 (Sanofi, published 2012).
Numbering of substitutions follows the chain as printed. Values joined by “and” are separate entries in the source; they are usually repeats but may differ in a detail not shown here. Equal entries are not always repeated.

B1: 158 RAGE-1 (antibody, V domains shown)
VH: QIQLVQSGPELKKPGETVKISCKASGYTFTDYSMHWVKQAPGKGLKWMGWINTETGEPTYADDFKGRFAFSLETSASTAYLLINNLKTEDTATYFCARDYLYYYAMDYWGQGTSVTVSS
VL: DVVLTQTPLSLPVNIGDQASISCKSTKSLLNSDGFTYLDWYLQKPGQSPQLLIYLVSNRFSGVPDRFSGSGSGTDFTLKISRVEAEDLGVYYCFQSNYLPLTFGGGTKVEIK
notes: Anti-RAGE monoclonal antibody from a hybridoma, captured by anti-mouse Fc; also called LP08105
B2: 240 RAGE-1 (antibody, V domains shown)
VH: B1 VH with L82Q, T88N
VL: B1 VL with N14S, R66S, L99F, K108T, V109L
notes: Anti-RAGE monoclonal antibody from a hybridoma, captured by anti-mouse Fc; also called LP08108
B3: Control XT-M4 (antibody, V domains shown)
VH: EVQLVESGGGLVQPGRSLKLSCVVSGFTFNNYWMTWIRQTPGKGLEWVASINNSGDNTYYPDSVKDRFTISRDNAKSTLYLQMNSLRSEDTATYYCTRGGDITTGFDYWGQGVMVTVSS
VL: DIQMTQSPSSMSVSLGDTITITCRASQDVGIYVNWFQQKPGKSPRRMIYRATNLADGVPSRFSGSRSGSIYSLTISSLESEDVADYHCLEFDEHPLTFGSGTKVEIK
B4: 166 RAGE-1 (antibody, V domains shown)
VH: QVQLQQSGPELVKPGTSVRISCKASGYTFTSYYIHWVKQRPGQGLEWIGWIYPGNVITNYHEKFKGKASLTADKSSSTAYMQLSSLTSEDSAVYFCAREDPFAYWGQGTLVTVSA
VL: NIMMTQSPSSLAVSAGEKVTMSCKSSQSVLYSSNQKNYLAWYQQKPGQSPKLLIYWASTRESGVPDRFTGSGSGTDFTLTISSVQAEDLAVYYCHQYLSSYTFGGGTKLEIK
notes: Anti-RAGE monoclonal antibody from a hybridoma, captured by anti-mouse Fc; also called LP08122; LP08122D
B5: 326 RAGE-1 (antibody, V domains shown)
VH: EVKLVESGGGLVKPGGSLKLSCAASGFAFSSYDMSWVRQTPEKRLEWVATISSGGSYTSYPDSVQGRFTISRDNARNTLYLQMSSLRSEDTALYYCASSQLPPYAMDYWGQGTSVTVSS
VL: DIVMTQSQKFMSTSVGDRVSITCKASQNVGTAVAWYQQKPGQSPKLLIYSASNRYTGVPDRFTGSGSGTDFTLTISNMQSEDLADYFCQQYSSYPLLTFGAGTKLELK
notes: Anti-RAGE monoclonal antibody from a hybridoma, captured by anti-mouse Fc; also called LP08137; Protein 326 RAGE-1
B6: 164 RAGE-1 (antibody, V domains shown)
VH: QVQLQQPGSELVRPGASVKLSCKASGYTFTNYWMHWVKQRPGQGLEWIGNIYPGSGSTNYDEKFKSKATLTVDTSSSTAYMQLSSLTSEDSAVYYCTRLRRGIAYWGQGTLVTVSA
VL: NIVMTQSPKSMSMSVGERVTLSCKASENVGTYVSWYQQKPEQSPKLLIYGASNRYTGVPDRFTGSGSATDFTLTISSVQAEDLADYHCGQSYTYPYTFGGGTKLEIK
notes: Anti-RAGE monoclonal antibody from a hybridoma, captured by anti-mouse Fc; also called LP08106; Protein 164 RAGE-1
B7: 253 RAGE-1 (antibody, V domains shown)
VH: QVQLQQSGPELVKPGASVRISCKASGYTFTDYYIHWVKQRPGQGLEWIGWIYPGNVITKYNEKFKGKATLTADKSSSTAYMQLSSLTSEDSAVYFCARYDYDYAMDYWGQGTSVTVSS
VL: DIVMSQSPSSLAVSVGEKVTMSCKSSQTLLYSSNQKNYLAWYQQKPGQSLKLLIYWASTRESGVPDRFAGSGSGTDFTLTISSVKAEDLAVYYCQQYFGYPYTFGGGTKLEIK
notes: Anti-RAGE monoclonal antibody from a hybridoma, captured by anti-mouse Fc; also called LP08127
B8: 56 RAGE-1 (antibody, V domains shown)
VH: QVQLQQSGPELVKPGASVRISCKASGYTFTSYFIHWVKQRPGQGLEWIGWIYPGNVNTKYNEKFKDKATLTADKSSSTAYMQLSNLTSEDSAVYFCVRGQLGDYWGQGITLTVSS
VL: DIVMTQSQKFMSTSVGDRVSVTCKASQNVGINVAWYQQKPGQSPKALIYSASYRYSGVPDRFTGSGSGTDFTLIISNVQSEDLAEYFCQQYNNYPRTFGGGTKLEIK
notes: Anti-RAGE monoclonal antibody from a hybridoma, captured by anti-mouse Fc; also called LP08103; Protein 56 RAGE-1
B9: 152 RAGE-1 (antibody, V domains shown)
VH: DVQLQESGPDLVKPSQSLSLTCTVTGYSITSGYSWHWIRQFPGNKLEWMGYIHYSGSTNYNPSLKSRISITRDTSKNQFFLQLNSVTTEDTATYYCARGGDFAYWGQGTLVTVSA
VL: DIVLTQSPASLAVSLGQRATISCRASKSVGTSDSSYMHWYQQKPGQPPKLLIYLASNLESGVPARFSGSGSGTDFTLNIHPVEEEDAATYYCQHSRELYTFGGGTKLEIK
notes: Anti-RAGE monoclonal antibody from a hybridoma, captured by anti-mouse Fc; also called LP08104; Protein 152 RAGE-1

The binders below were run against T1, RAGE-Fc (human, UniProt Q15109 23-344, limits assumed) (assay: competition ELISA, hRAGE-HMGB1 interaction).
T1 construct: also called hRAGE; not shown: Fc part, detected with anti-hIgG Fc-specific conjugate
T1 sequence (Q15109 23-344 limits assumed): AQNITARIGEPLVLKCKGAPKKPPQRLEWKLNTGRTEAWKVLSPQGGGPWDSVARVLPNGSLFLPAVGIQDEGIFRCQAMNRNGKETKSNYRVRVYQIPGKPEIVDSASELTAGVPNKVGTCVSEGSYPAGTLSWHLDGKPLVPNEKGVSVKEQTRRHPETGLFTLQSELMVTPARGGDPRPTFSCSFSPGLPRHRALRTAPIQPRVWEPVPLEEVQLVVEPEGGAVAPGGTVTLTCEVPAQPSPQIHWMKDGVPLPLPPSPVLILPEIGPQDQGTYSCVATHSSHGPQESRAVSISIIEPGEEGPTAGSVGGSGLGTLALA

Row | Binder | IC50
1 | B1 | 0.29 µg/mL and 1.39 nM
2 | B2 | 0.31 µg/mL and 2.06 nM
3 | B3 | 0.272 µg/mL

The binders below were run against T2, sRAGE (V-C1-C2) lot LP08062 (human, UniProt Q15109 23-331, limits assumed) (assay: SPR (Biacore), mAb captured on anti-mouse Fc, sRAGE 15 nM, Langmuir 1:1).
T2 construct: domain: V-C1-C2; also called Human RAGE; LP08062 (Rage)
Experimental: The assay is based on a capture assay using immobilized anti-mouse Fc IgG on CM5 chip. For immobilization of anti-Fc antibody HBS-EP was used as running buffer. Standard amine coupling to a CM5 chip was carried out at a contact time of 11 min and a flow rate of 10 μl/min. 10 mM Sodium Acetate pH 5.0 was used as immobilization buffer. The protein concentration (anti-mouse Fc, Biacore BR-1008-38) was 100 μg/mL.
For binding analysis SN anti-RAGE mAb diluted in running buffer at 1/10 (flow rate 5 μl/min) and sRAGE (V-C1-C2) lot LP08062 diluted in running buffer at 15 nM (flow rate 50 μl/min) was used as […], respectively (running buffer: HBS-P+BSA 12 mg/mL+CM Dextran 12 mg/mL and Regeneration solution: 10 mM Glycine pH 1.7). Langmuir 1:1 analysis was used as fitting model.

T2 sequence (Q15109 23-331 limits assumed): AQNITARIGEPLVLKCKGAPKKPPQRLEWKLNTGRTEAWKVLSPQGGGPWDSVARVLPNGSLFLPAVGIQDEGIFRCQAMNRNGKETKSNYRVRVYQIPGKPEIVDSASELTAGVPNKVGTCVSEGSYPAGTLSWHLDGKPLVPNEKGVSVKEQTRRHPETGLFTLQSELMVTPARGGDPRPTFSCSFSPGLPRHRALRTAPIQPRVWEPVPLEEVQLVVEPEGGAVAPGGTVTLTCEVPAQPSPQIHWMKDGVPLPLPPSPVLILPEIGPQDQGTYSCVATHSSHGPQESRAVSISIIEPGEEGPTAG

Row | Binder | Kd [nM] | koff [s⁻¹] | kon [M⁻¹ s⁻¹]
4 | B1 | 0.629 | 0.00253 | 4.02e+06
5 | B2 | 0.222 | 0.000769 | 3.47e+06
6 | B4 | 0.234 | 0.000758 | 3.24e+06
7 | B5 | 0.596 | 0.00171 | 2.87e+06
8 | B6 | 1.13 | 0.00203 | 1.8e+06
9 | B7 | 0.512 | 0.00199 | 3.89e+06
10 | B8 | 1.87 | 0.00539 | 2.89e+06
11 | B9 | 0.687 | 0.00265 | 3.86e+06

What follows are binders tested against T1, RAGE-Fc (assay: competition ELISA, hRAGE-S100B interaction).

Row | Binder | IC50
12 | B1 | 0.109 µg/mL
13 | B2 | 0.123 µg/mL
14 | B4 | 0.128 µg/mL
15 | B5 | 0.097 µg/mL and 0.64 nM
16 | B7 | 0.108 µg/mL
17 | B3 | 0.208 µg/mL

What follows are binders tested against T1, RAGE-Fc (assay: competition ELISA, RAGE-S100B interaction).

Row | Binder | IC50 [nM]
18 | B1 | 0.7
19 | B2 | 0.8
20 | B4 | 0.8
21 | B5 | 0.6
22 | B7 | 0.7
23 | B3 | 1.37

Each binder was assayed against T1, RAGE-Fc (assay: competition ELISA, RAGE-Fc binding to coated S100A6).
Experimental: (§1) For the S100A6 Competition ELISA Assay wells have been coated with S100A6 at 0.5 μg/well. Thereafter, RAGE-Fc at 10 μg/mL and competing mAb at 10 μg/mL have been pre-incubated at room temperature for 30 min. The mixture was transferred into S100A6-coated plates and incubated under agitation at room temperature for 2 hours. Bound RAGE-Fc was detected with anti-hIgG Fc-specific-POD using TMB (3, 3′, 5, 5′-Tetramethylbenzidine) at 450 nm.
For this, coating with S100A6 was carried out as detailed above. RAGE-Fc at 10 μg/mL was incubetd with competing mAb (2-fold serial dilutions starting at 100 μg/ml at room temperature for 2 hours. Binding was detected by anti IgG Fc-specific antibody peroxydase conjugate using TMB1 component HRP at 450 nm.

Row | Binder | IC50
24 | B1 | 6.79 µg/mL
25 | B2 | 6.66 µg/mL
26 | B4 | 8.33 µg/mL
27 | B8 | 1.16 µg/mL and 7.73 nM
28 | B3 | 5.2 µg/mL

What follows are binders tested against T1, RAGE-Fc (assay: competition ELISA, RAGE-S100A6 interaction).

Row | Binder | IC50 [nM]
29 | B1 | 45.3
30 | B2 | 44.4
31 | B4 | 55.5
32 | B8 | 7.7
33 | B3 | 34.6

What follows are binders tested against T3, RAGE V domain (UniProt Q15109 23-121, limits assumed) (assay: domain mapping, Table 1).
T3 construct: domain: V domain
T3 sequence (Q15109 23-121 limits assumed): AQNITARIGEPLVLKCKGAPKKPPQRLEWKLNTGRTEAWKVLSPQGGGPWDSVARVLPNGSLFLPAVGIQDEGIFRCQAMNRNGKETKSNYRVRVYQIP

Row | Binder | binding result
34 | B4 | no binding
35 | B5 | no binding
36 | B6 | no binding
37 | B7 | no binding
38 | B8 | no binding

What follows are binders tested against T4, RAGE C2 domain (UniProt Q15109 235-327, limits assumed) (assay: domain mapping, Table 1).
T4 construct: domain: C2 domain
T4 sequence (Q15109 235-327 limits assumed): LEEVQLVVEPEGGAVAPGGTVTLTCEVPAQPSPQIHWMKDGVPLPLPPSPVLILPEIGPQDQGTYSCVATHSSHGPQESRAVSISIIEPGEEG

Row | Binder | binding result
39 | B1 | no binding
40 | B2 | no binding
41 | B4 | no binding
42 | B5 | no binding
43 | B7 | no binding
44 | B9 | no binding

Each binder was assayed against T5, RAGE V-C1 domains (UniProt Q15109 23-233, limits assumed) (assay: domain mapping, Table 1).
T5 construct: domain: V-C1 domains
T5 sequence (Q15109 23-233 limits assumed): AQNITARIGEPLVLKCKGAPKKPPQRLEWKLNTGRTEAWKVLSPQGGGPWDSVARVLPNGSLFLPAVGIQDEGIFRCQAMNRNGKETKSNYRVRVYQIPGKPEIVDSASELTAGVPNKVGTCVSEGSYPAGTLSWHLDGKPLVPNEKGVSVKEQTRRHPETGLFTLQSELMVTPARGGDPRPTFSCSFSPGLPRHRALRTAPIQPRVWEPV

Row | Binder | binding result
45 | B6 | no binding
46 | B8 | no binding

The binders below were run against T1, RAGE-Fc (assay: competition ELISA, hRAGE-S100A6 interaction).

Row | Binder | maximum inhibitory effect [%]
47 | B1 | ≤ 50
48 | B2 | ≤ 50
49 | B4 | ≤ 50
50 | B8 | ≤ 50

These binders were tested against T1, RAGE-Fc (assay: competition ELISA, RAGE-HMGB1 interaction).

Row | Binder | IC50 [nM]
51 | B1 | 1.4
52 | B2 | 2.1
53 | B3 | 1.79

What follows are binders tested against T1, RAGE-Fc (assay: competition ELISA against S100A6, mAb 10 µg/mL).
Experimental: as §1

Row | Binder | inhibitory effect [%]
54 | B1 | > 20
55 | B2 | > 20
56 | B4 | > 20
57 | B8 | > 20
58 | B9 | > 20

The binders below were run against rat sRAGE (rat, UniProt Q63495 23-341, limits assumed) (assay: ELISA, O.D. 450 nm, one bar per species; plate format and antibody concentration not given).
rat sRAGE, sequence (Q63495 23-341 limits assumed): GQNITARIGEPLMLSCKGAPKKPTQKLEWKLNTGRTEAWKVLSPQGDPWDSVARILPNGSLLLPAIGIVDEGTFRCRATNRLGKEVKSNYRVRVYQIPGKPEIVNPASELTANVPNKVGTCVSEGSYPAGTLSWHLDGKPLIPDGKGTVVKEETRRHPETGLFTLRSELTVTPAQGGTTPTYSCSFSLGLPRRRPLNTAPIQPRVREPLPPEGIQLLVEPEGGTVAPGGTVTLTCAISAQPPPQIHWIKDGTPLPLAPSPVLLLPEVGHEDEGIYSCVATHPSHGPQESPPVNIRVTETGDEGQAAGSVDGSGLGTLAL

Row | Binder | binding result
59 | B1 | no binding (tested: not given)
60 | B2 | no binding (tested: not given)
61 | B4 | no binding (tested: not given)
62 | B5 | no binding (tested: not given)

The binders below were run against mouse sRAGE (mouse, UniProt Q62151 23-340, limits assumed) in the same assay as above.
mouse sRAGE, sequence (Q62151 23-340 limits assumed): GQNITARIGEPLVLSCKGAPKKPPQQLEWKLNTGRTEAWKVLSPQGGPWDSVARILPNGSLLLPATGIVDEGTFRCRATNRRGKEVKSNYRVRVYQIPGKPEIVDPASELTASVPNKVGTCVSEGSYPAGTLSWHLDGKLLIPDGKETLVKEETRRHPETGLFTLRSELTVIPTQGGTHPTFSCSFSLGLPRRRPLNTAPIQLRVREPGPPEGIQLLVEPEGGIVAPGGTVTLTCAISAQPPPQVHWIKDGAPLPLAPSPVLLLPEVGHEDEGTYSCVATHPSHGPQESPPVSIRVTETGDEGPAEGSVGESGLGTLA

Row | Binder | binding result
63 | B1 | no binding (tested: not given)
64 | B2 | no binding (tested: not given)
65 | B4 | no binding (tested: not given)
66 | B5 | no binding (tested: not given)
